Measurements: PMC9146797, “[^99mTc]Tc-Labeled Plectin-Targeting Peptide as a Novel SPECT Probe for Tumor Imaging” (Pharmaceutics, 2022)
Where a SMILES comes first, the peptide text is derived from it. Where no end group is shown, it is not given here.

Assays:
[1] = system: healthy ICR mice; assay: Pharmacokinetics in blood; type: in vivo; conditions: for radioactivity in blood: i.v. 20 µCi
Description: The pharmacokinetic profile of [^99mTc]Tc-HYNIC-PTP was investigated in healthy ICR mice. The mice were randomly divided into nine groups (n = 3), and each mouse was intravenously injected with [^99mTc]Tc-HYNIC-PTP at a dose of 20 µCi in a 200 µL solution. One hundred microliters of blood from each mouse was immediately collected and weighed at designated times (1, 2, 5, 15, 30, 60, 120, 240, and 360 min), and radioactivity was measured using a γ-counter (CAPINTEC, USA) to calculate the percent uptake of the injected dose per gram (%ID/g). In addition, the pharmacokinetic data were analyzed by DAS 2.0 (Shanghai, China) using a two-compartment model to calculate the half-life of [^99mTc]Tc-HYNIC-PTP in the blood.

[2] = system: tumor-bearing mice (U87, C6, A549, 4T1, and BxPC-3); assay: SPECT imaging in vivo; conditions: i.v. 200 µL of 10 mCi/mL, 0.5-4 h
Description: The feasibility of [^99mTc]Tc-HYNIC-PTP as a SPECT probe for tumor imaging was examined using established subcutaneous tumor models. Briefly, [^99mTc]Tc-HYNIC-PTP solution (200 µL, [^99mTc]Tc = 10 mCi/mL, corresponding to 2 µg of HYNIC-PTP) was intravenously injected into tumor-bearing mice. SPECT images were acquired 0.5, 1, 2, and 4 h after injection using a SPECT imaging system equipped with a Xeleris 2.0 workstation and low-energy general-purpose collimators (Infinia, Denver, CO, USA). After SPECT imaging, the tumors and muscle tissues were excised to confirm plectin expression levels by immunohistochemistry. Briefly, excised specimens were fixed in formalin and embedded in paraffin. The sections (5 μm) were subjected to heat treatment in a citrate solution for antigen retrieval and blocking with 3% bovine serum albumin for 30 min. Then the sections were incubated with anti-plectin primary antibody (1:200) overnight at 4 °C. After incubation with secondary antibody (K5007, DAKO, Carpinteria, CA, USA) at room temperature for 50 min, the slides were treated with 1:100 DAB (K5007, DAKO, USA) and counterstained with hematoxylin. At least three sections of each specimen were chosen, and 5–10 high-power visual fields were randomly selected to calculate the positive area of staining. The average areas were then used to plot histograms.

[3] = In vitro stability in FBS (RCP by ITLC); type: in vitro ADME, bovine; conditions: 37 °C, 0-6 h
Description: The [^99mTc]Tc-labeled PTP was characterized using an Agilent 1260 HPLC system (Agilent Technologies, Santa Clara, CA, USA) equipped with a UV-vis detector (λ = 220 nm) and a radioactive flow detector (BioScan, Poway, CA, USA). A SunFire C18 column (5 µm, 4.6 × 250 mm, Waters, Japan) was used at a 1 mL/min flow rate with the following gradient method: 0.1% trifluoroacetic acid in H2O and CH3CN (0–20 min, 15–45% CH3CN). The RCP of [^99mTc]Tc-HYNIC-PTP was determined by radio-HPLC and could also be rapidly analyzed by ITLC in a system consisting of silica gel 60 F254 TLC plates (Merck, Germany) and 50% acetonitrile as mobile phase. To assess the stability in vitro, the formed [^99mTc]Tc-HYNIC-PTP (500 μL, 1 mCi) was mixed with 500 μL of PBS (0.1 M, pH = 7.4) and 500 µL of cysteine solution (100-fold molar excess over the PTP) at room temperature, and 500 µL of FBS at 37 °C. The RCPs were tested by ITLC at different time intervals (0–6 h).

[4] = system: BALB/c nude mice; assay: Preliminary toxicity study in vivo
Description: To assess the preliminary safety in vivo, five BALB/c nude mice were treated with PTP at a single dose (1 mg, 100 µL), and another five mice treated with saline were used as the control group. The body weight, physical activity, and death of each mouse were recorded during the following seven days. The major organs of the mice, including the heart, liver, spleen, lung, and kidneys, were harvested for histological examination.

[5] = CCK-8 cytotoxicity assay; type: cell-based; conditions: C6 and BEAS-2B cells, PTP 0-200 µg/mL, CCK-8, absorbance 450 nm, BxPC-3, C6, BEAS-2B cells (Figure S1), read-out: cell viability
Description: CCK-8 assays were used to assess the potential cytotoxic effects of PTP on normal and tumor cell lines. Briefly, taking BxPC-3 cells as an example, the cells were seeded into 96-well plates at a density of 1 × 10^4 per well with RPMI-1640 medium and 10% FBS. After 24 h, the medium was replaced with 100 µL of fresh medium containing different concentrations of PTP (0–200 µg/mL) for another 24 h. Next, 10 µL of CCK-8 solution was added, and the cells were subsequently cultured for 1.5 h. Absorbance at 450 nm was measured using a Varioskan Flash multimode microplate reader (Thermo Fisher Scientific, Waltham, MA, USA). The cytocompatibility of PTP was also assessed in C6 and BEAS-2B cells using the same method.

[6] = blood, two-compartment model, DAS 2.0

For CC(C)C[C@H](NC(=O)[C@@H](NC(=O)[C@H](CCCCN)NC(=O)c1ccc(NN)nc1)[C@@H](C)O)C(=O)N[C@@H](CC(C)C)C(=O)N1CCC[C@H]1C(=O)N[C@H](C(=O)N1CCC[C@H]1C(=O)O)[C@@H](C)O [[^99mTc]Tc-HYNIC-PTP, metal not drawn] (HELM PEPTIDE1{[NNc1ccc(C(=O)[*:2])cn1].K.T.L.L.P.T.P}$$$$V2.0), the radioactivity in blood ([1]; 1 min post-injection, n = 3, γ-counter) was 14.52 %ID/g, the radioactivity in blood ([1]; 30 min post-injection, n = 3) was 1.35 %ID/g and the radioactivity in blood ([1]; 360 min post-injection, n = 3) was “Less than 0.01 %ID/g”. For the same compound, the “clear-phase half-life (t1/2 beta)” value [1, 6] was 9.17 min, the “distribution-phase half-life (t1/2 alpha)” value [1, 6] was 0.88 min and the route of clearance [2] was “predominantly cleared through the urinary system”. The “change of RCP in FBS” value [3] was “no evident changes in RCPs”.
For KTLLPTP [PTP], the death of mice ([4]; single dose 1 mg in 100 µL, five mice, seven days, vs saline) was “None of the mice died”, the “body weight and physical activity” value ([4]; single dose 1 mg in 100 µL, within seven days, vs saline group) was “no significant difference” and the “H&E staining of main organs (heart, liver, lung, spleen, kidneys)” value ([4]; single dose 1 mg, vs saline group (Figure S2)) was “no significant difference in tissue damage, necrotic areas, or abnormalities”. For the same compound, the viability at 24 h [5] was over 90%.
